The supplement of paper PMC9876800

Tested on: peptide library, one residue held at a place counted from the S/T acceptor
Assay: relative phosphorylation of the sub-library (ratio to the mean residue at this position); higher = residue favoured
Method in brief: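 Purified recombinant kinases, either human or orthologue constructs, were incubated in 384-well plates with biotinylated degenerate peptide sub-libraries. Each sub-library fixed one residue at one position around a central Ser/Thr. Peptides at 50 μM and 50 μM ATP spiked with γ-32P-ATP were used for 90 min under kinase-specific conditions, and spots on streptavidin membranes were phosphorimaged and quantified by densitometry. Relative sub-library phosphorylation is expressed as a ratio to the mean residue at that position.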

Chain of ATR, construct: Full length, human (Q13535 whole entry, looked up): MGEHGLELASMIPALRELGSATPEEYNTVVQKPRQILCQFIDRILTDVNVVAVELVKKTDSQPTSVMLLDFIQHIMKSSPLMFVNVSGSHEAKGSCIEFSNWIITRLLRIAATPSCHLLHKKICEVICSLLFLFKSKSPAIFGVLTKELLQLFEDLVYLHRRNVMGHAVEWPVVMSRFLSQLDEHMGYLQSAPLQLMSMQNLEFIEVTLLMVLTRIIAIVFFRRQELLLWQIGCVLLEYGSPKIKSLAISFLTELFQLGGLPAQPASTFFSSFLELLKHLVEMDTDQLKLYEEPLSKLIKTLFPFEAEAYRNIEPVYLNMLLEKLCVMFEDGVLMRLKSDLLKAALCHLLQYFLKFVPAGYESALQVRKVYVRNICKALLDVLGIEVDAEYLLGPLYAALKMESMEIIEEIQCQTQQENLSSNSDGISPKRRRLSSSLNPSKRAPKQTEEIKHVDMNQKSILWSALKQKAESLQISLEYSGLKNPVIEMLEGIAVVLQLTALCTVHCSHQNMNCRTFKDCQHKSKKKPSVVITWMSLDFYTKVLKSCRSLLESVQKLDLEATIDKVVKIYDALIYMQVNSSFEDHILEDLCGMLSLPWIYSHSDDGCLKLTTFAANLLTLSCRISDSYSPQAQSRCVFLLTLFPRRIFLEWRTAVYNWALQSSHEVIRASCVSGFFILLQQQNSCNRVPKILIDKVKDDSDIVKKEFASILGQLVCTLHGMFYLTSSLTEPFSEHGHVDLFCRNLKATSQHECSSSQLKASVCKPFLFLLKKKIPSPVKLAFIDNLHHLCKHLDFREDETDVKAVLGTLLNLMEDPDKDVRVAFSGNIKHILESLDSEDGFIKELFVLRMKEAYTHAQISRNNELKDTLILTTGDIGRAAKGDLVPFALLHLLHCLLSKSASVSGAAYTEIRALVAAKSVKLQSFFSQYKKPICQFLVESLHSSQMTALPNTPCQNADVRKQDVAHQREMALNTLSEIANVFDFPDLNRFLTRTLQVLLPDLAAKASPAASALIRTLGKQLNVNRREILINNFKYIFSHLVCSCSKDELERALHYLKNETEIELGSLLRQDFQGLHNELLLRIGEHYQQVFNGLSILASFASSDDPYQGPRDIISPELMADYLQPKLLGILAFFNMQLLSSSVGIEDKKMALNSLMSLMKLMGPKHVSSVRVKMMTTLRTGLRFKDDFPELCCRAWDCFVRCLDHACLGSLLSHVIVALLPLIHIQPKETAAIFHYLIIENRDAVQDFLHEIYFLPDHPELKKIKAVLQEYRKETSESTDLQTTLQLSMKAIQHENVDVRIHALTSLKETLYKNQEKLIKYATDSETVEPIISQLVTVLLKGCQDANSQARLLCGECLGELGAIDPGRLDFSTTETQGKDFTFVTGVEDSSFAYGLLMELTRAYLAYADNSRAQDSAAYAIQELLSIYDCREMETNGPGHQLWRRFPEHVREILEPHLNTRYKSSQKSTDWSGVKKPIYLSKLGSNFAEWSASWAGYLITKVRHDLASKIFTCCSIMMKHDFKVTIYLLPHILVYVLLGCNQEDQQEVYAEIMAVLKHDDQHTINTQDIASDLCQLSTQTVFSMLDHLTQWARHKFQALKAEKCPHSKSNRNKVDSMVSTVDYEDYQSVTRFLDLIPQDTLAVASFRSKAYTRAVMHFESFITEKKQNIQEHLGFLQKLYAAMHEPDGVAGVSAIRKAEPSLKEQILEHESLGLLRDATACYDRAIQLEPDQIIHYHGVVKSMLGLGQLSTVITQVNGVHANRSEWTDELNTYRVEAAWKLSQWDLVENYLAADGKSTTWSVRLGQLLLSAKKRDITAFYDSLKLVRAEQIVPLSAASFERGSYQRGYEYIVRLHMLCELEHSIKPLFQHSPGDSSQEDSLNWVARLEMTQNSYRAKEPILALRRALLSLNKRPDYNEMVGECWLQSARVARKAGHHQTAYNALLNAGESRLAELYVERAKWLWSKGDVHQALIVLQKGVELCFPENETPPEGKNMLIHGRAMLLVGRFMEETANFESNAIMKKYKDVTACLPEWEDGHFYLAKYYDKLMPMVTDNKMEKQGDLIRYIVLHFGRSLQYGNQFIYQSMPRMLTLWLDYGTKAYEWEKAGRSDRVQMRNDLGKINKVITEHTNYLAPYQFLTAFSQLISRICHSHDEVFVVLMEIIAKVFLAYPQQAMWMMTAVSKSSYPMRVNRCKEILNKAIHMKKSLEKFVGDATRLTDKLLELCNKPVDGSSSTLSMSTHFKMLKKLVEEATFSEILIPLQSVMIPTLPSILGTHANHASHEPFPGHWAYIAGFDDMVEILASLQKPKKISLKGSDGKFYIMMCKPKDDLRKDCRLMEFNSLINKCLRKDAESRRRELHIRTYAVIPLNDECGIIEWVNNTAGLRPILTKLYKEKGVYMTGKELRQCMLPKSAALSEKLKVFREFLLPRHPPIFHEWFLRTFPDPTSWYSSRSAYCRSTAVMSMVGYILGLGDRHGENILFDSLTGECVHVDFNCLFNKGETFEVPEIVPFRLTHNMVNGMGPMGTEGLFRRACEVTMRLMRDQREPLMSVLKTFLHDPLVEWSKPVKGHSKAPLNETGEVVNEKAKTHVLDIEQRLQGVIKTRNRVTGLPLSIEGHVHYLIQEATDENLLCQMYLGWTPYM
Chain of BMPR2, construct: aa172-end, human (Q13873 172-1038, looked up): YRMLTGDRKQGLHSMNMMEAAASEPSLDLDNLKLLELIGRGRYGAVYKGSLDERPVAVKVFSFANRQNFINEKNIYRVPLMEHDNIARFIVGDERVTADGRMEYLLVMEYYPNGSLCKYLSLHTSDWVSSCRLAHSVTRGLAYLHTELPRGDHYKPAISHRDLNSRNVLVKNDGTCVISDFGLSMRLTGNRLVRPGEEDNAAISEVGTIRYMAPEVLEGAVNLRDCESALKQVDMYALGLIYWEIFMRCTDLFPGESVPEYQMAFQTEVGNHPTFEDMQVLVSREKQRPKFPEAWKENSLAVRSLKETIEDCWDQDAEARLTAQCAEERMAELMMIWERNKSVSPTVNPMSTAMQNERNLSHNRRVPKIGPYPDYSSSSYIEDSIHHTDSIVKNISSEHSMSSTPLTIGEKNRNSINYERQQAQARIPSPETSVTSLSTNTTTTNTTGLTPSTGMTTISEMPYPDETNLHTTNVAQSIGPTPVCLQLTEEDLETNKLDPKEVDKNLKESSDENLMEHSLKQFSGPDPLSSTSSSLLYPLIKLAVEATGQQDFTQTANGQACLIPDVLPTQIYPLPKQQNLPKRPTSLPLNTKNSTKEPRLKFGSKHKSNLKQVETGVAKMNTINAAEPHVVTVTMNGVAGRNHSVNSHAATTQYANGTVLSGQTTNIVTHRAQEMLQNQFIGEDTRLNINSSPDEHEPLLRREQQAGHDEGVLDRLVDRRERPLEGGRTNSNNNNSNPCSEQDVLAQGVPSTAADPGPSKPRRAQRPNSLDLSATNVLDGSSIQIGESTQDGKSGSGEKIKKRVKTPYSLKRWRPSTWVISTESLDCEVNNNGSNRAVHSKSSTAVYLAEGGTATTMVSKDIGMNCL
Chain of BMPR1A, construct: aa187-end, human (P36894 187-532, looked up): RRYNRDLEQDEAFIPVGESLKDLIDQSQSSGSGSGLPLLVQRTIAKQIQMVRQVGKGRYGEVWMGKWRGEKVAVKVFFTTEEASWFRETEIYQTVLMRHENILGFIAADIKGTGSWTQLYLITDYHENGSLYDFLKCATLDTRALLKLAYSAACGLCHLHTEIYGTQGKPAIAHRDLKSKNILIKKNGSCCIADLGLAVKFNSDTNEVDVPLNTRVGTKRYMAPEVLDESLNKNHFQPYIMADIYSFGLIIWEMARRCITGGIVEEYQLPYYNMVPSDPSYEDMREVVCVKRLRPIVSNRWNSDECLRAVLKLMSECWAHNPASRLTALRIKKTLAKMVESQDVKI

ATR, construct: Full length, human (from UniProt Q13535)
relative phosphorylation
Settings | at +1 | at +2 | at +3 | at +4 | at -1 | at -2 | at -3 | at -4 | at -5
A fixed | 0.714 | 1.01 | 1.05 | 1.05 | 1.46 | 1.01 | 1.01 | 0.94 | 0.971
D fixed | 0.582 | 1.07 | 1.13 | 0.968 | 0.86 | 0.785 | 0.814 | 0.984 | 1.17
E fixed | 0.586 | 1.07 | 1.21 | 0.929 | 0.742 | 0.871 | 0.88 | 1.18 | 1.07
F fixed | 0.709 | 0.913 | 0.944 | 0.988 | 0.872 | 0.957 | 1.08 | 1.18 | 1.3
G fixed | 0.651 | 0.921 | 0.965 | 1.13 | 1.26 | 0.839 | 0.875 | 1.05 | 1.01
H fixed | 0.624 | 1.06 | 0.991 | 1.02 | 0.845 | 0.973 | 0.889 | 0.982 | 1.01
I fixed | 0.747 | 0.898 | 0.866 | 0.875 | 0.687 | 0.793 | 1.1 | 0.912 | 0.818
K fixed | 0.649 | 0.923 | 0.877 | 0.928 | 0.806 | 1.09 | 0.911 | 0.919 | 0.884
L fixed | 0.73 | 0.871 | 0.887 | 0.993 | 1.26 | 0.84 | 1.18 | 0.901 | 0.901
M fixed | 0.685 | 0.908 | 0.92 | 0.995 | 0.978 | 0.94 | 1.12 | 0.96 | 0.931
N fixed | 0.933 | 1.05 | 1 | 1.02 | 1.17 | 0.945 | 0.816 | 0.892 | 0.877
P fixed | 0.689 | 1.14 | 1.18 | 1.19 | 1.45 | 1.59 | 0.972 | 0.956 | 0.909
Q fixed | 5.91 | 1.23 | 1.09 | 0.994 | 1.2 | 1.03 | 0.859 | 0.926 | 0.871
R fixed | 0.83 | 1.09 | 0.972 | 0.97 | 0.855 | 1.67 | 1.62 | 0.982 | 1
V fixed | 0.665 | 0.967 | 0.988 | 0.849 | 0.725 | 0.768 | 0.884 | 0.867 | 0.802
W fixed | 0.618 | 0.926 | 0.934 | 1.11 | 0.842 | 0.916 | 1.08 | 1.26 | 1.23
Y fixed | 0.671 | 0.971 | 1 | 0.984 | 0.987 | 0.99 | 0.911 | 1.11 | 1.23
pThr fixed | 0.679 | 0.968 | 1.36 | 1.1 | 0.799 | 0.849 | 0.99 | 1.38 | 1.3
pTyr fixed | 0.62 | 1.01 | 1.03 | 1.44 | 0.904 | 1.14 | 1.83 | 2.14 | 1.62

BMPR1A, construct: aa187-end, human (from UniProt P36894)
relative phosphorylation
Settings | at +1 | at +2 | at +3 | at +4 | at -1 | at -2 | at -3 | at -4 | at -5
A fixed | 0.574 | 0.952 | 0.911 | 0.854 | 0.648 | 0.721 | 0.791 | 0.912 | 0.982
D fixed | 2.03 | 1.24 | 1.79 | 1.3 | 1.72 | 1.97 | 2.32 | 2.47 | 1.88
E fixed | 6.79 | 1.52 | 1.55 | 1.31 | 1.95 | 7.73 | 2.92 | 1.81 | 1.65
F fixed | 0.398 | 0.622 | 0.89 | 0.889 | 0.797 | 0.384 | 0.65 | 0.792 | 0.807
G fixed | 0.58 | 1.89 | 0.941 | 1 | 0.483 | 0.579 | 0.948 | 0.958 | 0.93
H fixed | 0.431 | 1.25 | 0.889 | 1.06 | 0.983 | 0.483 | 0.826 | 0.987 | 1.02
I fixed | 0.677 | 0.554 | 1.01 | 1.01 | 0.809 | 0.432 | 0.662 | 0.781 | 0.83
K fixed | 0.335 | 0.803 | 0.498 | 0.738 | 0.587 | 0.351 | 0.564 | 0.741 | 0.86
L fixed | 0.417 | 0.613 | 0.926 | 0.797 | 1.17 | 0.453 | 0.649 | 0.701 | 0.802
M fixed | 0.57 | 0.721 | 0.85 | 0.922 | 1.67 | 0.462 | 0.859 | 0.808 | 0.791
N fixed | 0.668 | 0.776 | 0.793 | 0.946 | 1.01 | 0.693 | 1.24 | 1.08 | 1.22
P fixed | 0.265 | 1.31 | 0.936 | 0.964 | 0.466 | 0.401 | 0.74 | 0.775 | 0.699
Q fixed | 0.644 | 0.735 | 0.729 | 0.931 | 1.13 | 0.659 | 1.02 | 0.892 | 0.908
R fixed | 0.314 | 0.691 | 0.478 | 0.767 | 0.555 | 0.395 | 0.636 | 0.718 | 0.886
V fixed | 1.47 | 0.632 | 1.13 | 0.961 | 1.23 | 0.545 | 0.731 | 0.887 | 0.832
W fixed | 0.421 | 1.14 | 1.46 | 1.38 | 0.77 | 0.392 | 0.676 | 0.887 | 0.965
Y fixed | 0.417 | 1.55 | 1.21 | 1.18 | 1.02 | 0.349 | 0.755 | 0.791 | 0.928
pThr fixed | 5.36 | 1.98 | 1.01 | 1.31 | 1.08 | 1.66 | 2.19 | 1.53 | 1.46
pTyr fixed | 1.09 | 0.876 | 1.35 | 1.22 | 1.54 | 0.763 | 1.55 | 1.09 | 1.42

BMPR2, construct: aa172-end, human (from UniProt Q13873)
relative phosphorylation
Settings | at +1 | at +2 | at +3 | at +4 | at -1 | at -2 | at -3 | at -4 | at -5
A fixed | 0.89 | 1 | 0.941 | 0.96 | 0.845 | 0.887 | 0.99 | 1.11 | 1.08
D fixed | 0.946 | 1.13 | 0.871 | 0.94 | 0.963 | 1.86 | 1.24 | 1.1 | 1.08
E fixed | 1.08 | 1.08 | 0.844 | 0.951 | 0.944 | 1.91 | 1.19 | 1.18 | 1.04
F fixed | 0.929 | 0.88 | 0.927 | 0.94 | 1.1 | 0.825 | 0.977 | 0.973 | 1.06
G fixed | 0.969 | 1.04 | 1.1 | 1.02 | 0.839 | 1.05 | 1.08 | 1.01 | 1.06
H fixed | 1.1 | 1.04 | 1.03 | 1 | 1.01 | 0.904 | 1.08 | 0.978 | 0.96
I fixed | 1.02 | 0.889 | 0.92 | 0.868 | 0.862 | 0.728 | 0.892 | 0.911 | 0.971
K fixed | 0.831 | 1.03 | 1.04 | 1.1 | 0.822 | 0.791 | 0.835 | 0.935 | 0.913
L fixed | 1.04 | 0.905 | 0.934 | 0.935 | 1.1 | 0.786 | 0.869 | 0.928 | 0.913
M fixed | 1.15 | 0.989 | 0.93 | 0.943 | 1.24 | 0.797 | 0.955 | 0.936 | 0.895
N fixed | 1.02 | 0.987 | 1.01 | 0.963 | 0.968 | 1.05 | 1.03 | 0.938 | 0.898
P fixed | 0.724 | 1.02 | 1.17 | 1.08 | 0.738 | 0.809 | 0.965 | 1.09 | 0.948
Q fixed | 1.04 | 1.01 | 0.949 | 0.973 | 0.986 | 1.15 | 1.04 | 0.919 | 0.861
R fixed | 0.933 | 1 | 1.22 | 1.18 | 0.905 | 0.816 | 0.873 | 0.867 | 0.956
V fixed | 0.999 | 0.972 | 0.989 | 0.926 | 1.03 | 0.822 | 0.862 | 0.979 | 1.01
W fixed | 1.1 | 0.94 | 0.998 | 1.16 | 1.24 | 0.855 | 1.03 | 1.05 | 1.18
Y fixed | 1.24 | 1.1 | 1.12 | 1.05 | 1.4 | 0.95 | 1.11 | 1.09 | 1.18
pThr fixed | 1.02 | 1.04 | 0.847 | 0.873 | 0.862 | 0.993 | 1.15 | 1.08 | 0.979
pTyr fixed | 0.907 | 0.891 | 0.883 | 0.86 | 1.56 | 1.06 | 1.34 | 1.1 | 1.07

CDC42BPB, construct: aa1-473, human (from UniProt Q9Y5S2)
relative phosphorylation
Settings | at +1 | at +2 | at +3 | at +4 | at -1 | at -2 | at -3 | at -4 | at -5
A fixed | 0.871 | 1.22 | 0.922 | 0.791 | 0.734 | 0.478 | 0.556 | 0.951 | 0.922
D fixed | 0.4 | 0.468 | 0.548 | 0.721 | 0.379 | 0.196 | 0.199 | 0.472 | 0.427
E fixed | 0.435 | 0.373 | 0.654 | 0.667 | 0.313 | 0.181 | 0.204 | 0.506 | 0.479
F fixed | 0.776 | 0.935 | 1.01 | 0.821 | 0.552 | 0.442 | 0.381 | 0.718 | 0.843
G fixed | 0.803 | 1.1 | 1.42 | 1.07 | 0.883 | 0.45 | 0.44 | 0.974 | 1.04
H fixed | 0.962 | 1.19 | 1.2 | 1.11 | 1.21 | 0.989 | 1.03 | 1.06 | 0.99
I fixed | 1.55 | 1.32 | 0.96 | 0.924 | 0.572 | 0.419 | 0.382 | 0.651 | 0.788
K fixed | 0.865 | 1.58 | 1.03 | 1.34 | 2.46 | 2.78 | 2.55 | 2.46 | 2.54
L fixed | 1.74 | 0.816 | 0.841 | 0.852 | 1.36 | 0.423 | 0.326 | 0.7 | 0.645
M fixed | 1.24 | 0.823 | 0.944 | 0.919 | 1.04 | 0.459 | 0.36 | 0.775 | 0.664
N fixed | 1.89 | 0.819 | 0.918 | 0.856 | 1.2 | 0.787 | 0.524 | 0.756 | 0.812
P fixed | 0.404 | 0.842 | 0.888 | 1.38 | 0.786 | 0.433 | 0.371 | 0.873 | 0.875
Q fixed | 1.08 | 0.699 | 0.829 | 1.08 | 1.09 | 0.798 | 0.648 | 0.851 | 0.786
R fixed | 1.41 | 1.65 | 1.52 | 1.52 | 2.15 | 6.46 | 7.75 | 3.03 | 2.81
V fixed | 0.983 | 1.13 | 0.936 | 0.787 | 0.667 | 0.397 | 0.335 | 0.637 | 0.768
W fixed | 0.852 | 0.934 | 1.06 | 1.23 | 0.648 | 0.718 | 0.524 | 0.849 | 0.756
Y fixed | 0.736 | 1.12 | 1.33 | 0.93 | 0.97 | 0.591 | 0.425 | 0.735 | 0.856
pThr fixed | 0.479 | 0.762 | 0.582 | 0.698 | 0.344 | 0.329 | 0.352 | 0.647 | 0.611
pTyr fixed | 0.553 | 0.745 | 0.707 | 0.685 | 0.467 | 0.319 | 0.545 | 0.558 | 0.62
